According to US20250019453A1 (SYNTHEKINE, published 2025):

Legend:
[1] = molecular target: T1, hIL2Rb-his (human, UniProt P14784 27-240); assay: SPR; ratio of experimental to calculated Rmax
T1 sequence: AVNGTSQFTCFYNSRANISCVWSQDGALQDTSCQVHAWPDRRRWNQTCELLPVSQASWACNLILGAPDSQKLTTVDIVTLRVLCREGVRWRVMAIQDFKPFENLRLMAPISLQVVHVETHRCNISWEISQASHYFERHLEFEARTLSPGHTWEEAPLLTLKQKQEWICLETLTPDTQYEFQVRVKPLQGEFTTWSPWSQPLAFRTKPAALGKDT
Description: (§1) A representative example from each hIL2Rb VHH clonotype generated as descried above was selected for evaluation of binding via SPR as follows. Evaluation of binding affinity of the hIL2Rb binding molecules shown in Table 16 was conducted using surface plasmon resonance (SPR) in substantial accordance with the following procedure. All experiments were conducted in 10 mM Hepes, 150 mM NaCl, 0.05% (v/v) Polysorbate 20 (PS20) and 3 mM EDTA (HBS-EP+ buffer) on a Biacore T200 instrument equipped with a Protein A derivatized sensor chip (Cytiva). Mono-Fc VHH ligands were flowed at 5 μl/min for variable time ranging from 18 to 300 seconds, reaching the capture loads listed in the tables below. Following ligand capture, injections of a 2-fold dilution series of the extracellular domain of the IL2Rb-receptor modified to incorporate a C-terminal poly-His sequence, typically comprising at least five concentrations between 1 μM and 1 nM, were performed in either high performance or single cycle kinetics mode. Surface regeneration was achieved by flowing 10 mM glycine-HCl, pH 1.5 (60 seconds, […]). Buffer-subtracted sensograms were processed with Biacore T200 Evaluation Software and globally fit with a 1:1 Langmuir binding model (bulk shift set to zero) to extract kinetics and affinity constants (kₐ, kd, KD). RMAX<100 RU indicates surface density compatible with kinetics analysis. Calculated Rₘₐₓ values were generated using the equation: Rmax=Load (RU)×valency of ligand×(Molecular weight of analyte/Molecular weight of ligand). Surface activity was defined as the ratio of experimental/calculated Rmax.

[2] = molecular target: T1, hIL2Rb-his; assay: SPR Biacore T200; Mono-Fc VHH captured on Protein A chip, hIL2Rb-his analyte; 1:1 Langmuir fit
Description: as §1

[3] = molecular target: T2, hIL2Rg-his (Sino Biological, Catalog# 10555) (human, UniProt P31785 23-262); assay: SPR; ratio of experimental to calculated Rmax
T2 construct: Bought; also called extracellular domain of hIL2Rg
T2 sequence: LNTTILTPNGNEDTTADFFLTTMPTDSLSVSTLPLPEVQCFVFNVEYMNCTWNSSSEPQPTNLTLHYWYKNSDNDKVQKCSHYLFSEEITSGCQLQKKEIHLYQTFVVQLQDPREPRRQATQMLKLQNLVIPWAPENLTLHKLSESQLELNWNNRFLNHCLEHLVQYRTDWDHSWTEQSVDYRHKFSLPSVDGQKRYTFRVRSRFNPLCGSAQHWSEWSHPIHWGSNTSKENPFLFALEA
Description: (§2) To confirm and evaluate binding affinities of the binding of the IL2Rg sdAbs, a representative example from each clonotype generated was selected for evaluation of binding via SPR. […] Buffer-subtracted sensograms were processed with Biacore T200 Evaluation Software and globally fit with a 1:1 Langmuir binding model (bulk shift set to zero) to extract kinetics and affinity constants (kₐ, kd, KD). RMAX<100 RU indicates surface density compatible with kinetics analysis. Calculated Rₘₐₓ values were generated using the equation: Rmax=Load (RU)×valency of ligand×(Molecular weight of analyte/Molecular weight of ligand). Surface activity was defined as the ratio of experimental/calculated Rmax.
Calculated Rmax were generated using the equation Rmax=Load (RU)×valency of ligand×(Molecular weight of analyte/Molecular weight of ligand. Surface activity was defined as the ratio experimental/calculated Rmax. See tables 16 and 17 below for sample information and experimental results.

[4] = molecular target: T2, hIL2Rg-his (Sino Biological, Catalog# …); assay: SPR Biacore T200; Mono-Fc VHH captured on Protein A chip, hIL2Rg-his analyte; 1:1 Langmuir fit
Description: as §2
All experiments were conducted in 10 mM Hepes, 150 mM NaCl, 0.05% (v/v) Polysorbate 20 (PS20) and 3 mM EDTA (HBS-EP+ buffer) on a Biacore T200 instrument equipped with a Protein A chip (Cytiva). Mono-Fc VHH ligands were flowed at 5 μl/min for variable time ranging from 18 to 300 seconds, reaching the capture loads listed in the tables below.
Following ligand capture, injections of a 2-fold dilution series of his-tagged cytokine receptors typically comprising at least five concentrations between 1 μM and 1 nM were performed in either high performance or single cycle kinetics mode. Surface regeneration was achieved by flowing 10 mM glycine-HCl, pH 1.5 (60 seconds, 50 μL/min). Buffer-subtracted sensograms were processed with Biacore T200 Evaluation Software and globally fit with a 1:1 Langmuir binding model (bulk shift set to zero) to extract kinetics and affinity constants (kₐ, kd, KD). RMAX<100 RU indicates surface density compatible with kinetics analysis.

[5] = molecular target: T3, hIL2Rb ECD antigen (human, UniProt P14784 27-240); assay: PE-ELISA of phage clones
T3 construct: The immunogen was the ECD fused to human IgG1 hinge and Fc; also called ECD of IL2Rb (human); human IL-2Rβ
T3 sequence: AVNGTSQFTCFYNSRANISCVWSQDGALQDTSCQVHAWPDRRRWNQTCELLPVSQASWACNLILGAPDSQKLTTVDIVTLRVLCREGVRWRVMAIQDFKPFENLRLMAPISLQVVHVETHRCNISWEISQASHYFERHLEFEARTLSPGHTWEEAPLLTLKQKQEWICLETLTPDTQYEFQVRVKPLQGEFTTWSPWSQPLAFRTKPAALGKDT

B1: hIL2Rb_VHH7 Mono-Fc VHH (Fc fusion, not shown: a dimerising Fc or GST)
chain: QVQLQESGGGSVQAGGSLRLSCAASGYEYCRIHMTWYRQGPGKEREFVSSIGSDGRKTYANSVTGRFTISRDNANHTVYLQMNSLSPEDTAMYYCKTEYLYGLGCPDGSAYWGQGTQVTVSS
For B1, which “Surface Activity” value [1] is on record?
Its value is 43%.

And the Kd [2]?
The Kd was 1.1 nM.

And the koff [2]?
Its koff is 0.00317 s⁻¹.

What about the kon [2] of the same binder?
The kon was 2.86e+06 M⁻¹ s⁻¹.

B2: hIL-2Rg_VHH21 Mono-Fc VHH (Fc fusion, not shown: a dimerising Fc or GST)
chain: QVQLQESGGGSVQAGGSLRLSCVASGYTSCMGWFRQAPGKEREAVATIYTRGRSIYYADSVKGRFTISQDNAKNTLYLQMNSLKPEDIAMYSCAAGGYSWSAGCEFNYWGQGTQVTVSS
Which results are given for B2?
Surface Activity [3]: 6%; Kd [4]: 17.2 nM; koff [4]: 0.00113 s⁻¹; kon [4]: 65600 M⁻¹ s⁻¹

B3: hIL-2Rg_VHH22 Mono-Fc VHH (Fc fusion, not shown: a dimerising Fc or GST)
chain: QVQLQESGGGLVQPGGSLRLSCTASGFSFSSYPMTWARQAPGKGLEWVSTIASDGGSTAYAASVEGRFTISRDNAKSTLYLQLNSLKTEDTAMYYCTKGYGDGTPAPGQGTQVTVSS
How did the “Surface Activity” value [3] turn out when B3 was run?
Its value is 108%.

What about the Kd [4] of the same binder?
Its Kd is 6.4 nM.

What about the koff [4] of the same binder?
The koff was 0.00354 s⁻¹.

What about the kon [4] of the same binder?
Its kon is 554000 M⁻¹ s⁻¹.

B4: hIL2Rb_VHH4 Mono-Fc VHH (Fc fusion, not shown: a dimerising Fc or GST)
chain: QVQLQESGGGSVQTGGSLRLSCAVSGYTTYSFNYMGWFRQAPGKEREGVAVIYTGGGSTLYADSVKGRFTISQDNAKNTVYLQMNSLKPEDTAMYYCAADDQRFASPLYAYFGYWGQGTQVTVSS
With B4 as the binder, how does the “Surface Activity” value [1] read?
Its value is 96%.

What about the Kd [2] of the same binder?
Its Kd is 3.4 nM.

What about the koff [2] of the same binder?
Its koff is 0.00205 s⁻¹.

And the kon [2]?
Its kon is 600000 M⁻¹ s⁻¹.

B5: hIL2Rb_VHH5 Mono-Fc VHH (Fc fusion, not shown: a dimerising Fc or GST)
chain: QVQLQESGGGSVQVGGSLRLSCATSGDTKSIRCMGWFRQTPGKEREGIAAIDREGFATYADSVYDRFTIAQDNAQNTLYLEMNALKPEDTAMYYCAAQNMCRVVRGAMTGVDYWGKGTQVTVSS
Which results are given for B5?
Surface Activity [1]: 42%; Kd [2]: 0.4 nM; koff [2]: 0.00154 s⁻¹; kon [2]: 3.82e+06 M⁻¹ s⁻¹

B6: hIL2Rb_VHH2 Mono-Fc VHH (Fc fusion, not shown: a dimerising Fc or GST)
chain: QVQLQESGGGLVQPGGSLRLSCVASGFTFSNYWIFWVRQAAGKGLEWLSTSNTGGDTTKYADSVKGRFTISRDSAKNTEYLQMNSLKPEDTAVYYCETGRCARSGGYQGTQVTVSS
What does the source list for B6?
Surface Activity [1]: 26%; Kd [2]: 16 nM; koff [2]: 0.00224 s⁻¹; kon [2]: 139000 M⁻¹ s⁻¹

B7: hIL2Rb_VHH1 Mono-Fc VHH (Fc fusion, not shown: a dimerising Fc or GST)
chain: QVQLQESGGGSVQAGGSLRLSCVGSGYTYDTSDMSWYRQAPGKEREFVSDIDSGDWAAYADAVKGRFTISRDNAKKTVYLQMNSLEPEDTAMYYCKASYWKWGKLNNFWGPGTQVTVSS
Which results are given for B7?
Surface Activity [1]: 37%; Kd [2]: 1 nM; koff [2]: 0.0199 s⁻¹; kon [2]: 1.98e+07 M⁻¹ s⁻¹

B8: hIL2Rb_VHH6 Mono-Fc VHH (Fc fusion, not shown: a dimerising Fc or GST)
chain: QVQLQESGGGSVQAGGSLRLSCAASEYTASRYCMAWFRQAPGKEREGVAAIHPGGGTTYYADSVKGRFSISQDSADNTLYLQMNSLKPEDTAMYYCAAGSLWVPFGDRCAANYWGQGTQVTVSS
How did the “Surface Activity” value [1] turn out when B8 was run?
Its value is 53%.

And the Kd [2]?
Its Kd is 1.2 nM.

And the koff [2]?
Its koff is 0.0229 s⁻¹.

And the kon [2]?
The kon was 1.9e+07 M⁻¹ s⁻¹.

B9: hIL-2Rg_VHH15 Mono-Fc VHH (Fc fusion, not shown: a dimerising Fc or GST)
chain: QVQLQESGGGLVQPGGSLRLSCAASGFTFSSAHMSWVRQAPGKGREWIASIYSGGGTFYADSVKGRFTISRDNAKNTLYLQLNSLKAEDTAMYYCATNRLHYYSDDDSLRGQGTQVTVSS
With B9 as the binder, how does the “Surface Activity” value [3] read?
The value was 73%.

And the Kd [4]?
Its Kd is 26 nM.

What about the koff [4] of the same binder?
Its koff is 0.00251 s⁻¹.

What about the kon [4] of the same binder?
Its kon is 96800 M⁻¹ s⁻¹.

B10: hIL-2Rg_VHH19 Mono-Fc VHH (Fc fusion, not shown: a dimerising Fc or GST)
chain: QVQLQESGGGSVQAGGSLRLSCTASGFTFDDREMNWYRQAPGNECELVSTISSDGSTYYADSVKGRFTISQDNAKNTVYLQMDSVKPEDTAVYYCAADFMIAIQAPGAGCWGQGTQVTVSS
Which “Surface Activity” value [3] does the source give for B10 here?
Its value is 33%.

And the Kd [4]?
The Kd was 2.4 nM.

What about the koff [4] of the same binder?
The koff was 0.00693 s⁻¹.

What about the kon [4] of the same binder?
The kon was 2.85e+06 M⁻¹ s⁻¹.

B11: hIL2Rb_VHH3 Mono-Fc VHH (Fc fusion, not shown: a dimerising Fc or GST)
chain: QVQLQESGGGLVQPGGSLKLSCAASGFRFSNYGMSWVRQAPGEGLEWVSYINGDGSRTHYADSVKGRFTISRDNAKNTLYLQLNSLKTEDTAMYYCEKGLSRDGWSLSAASRGQGTQVTVSS
Which results are given for B11?
Surface Activity [1]: 52%; Kd [2]: 47 nM; koff [2]: 0.00699 s⁻¹; kon [2]: 157000 M⁻¹ s⁻¹

B12: hIL-2Rg_VHH20 Mono-Fc VHH (Fc fusion, not shown: a dimerising Fc or GST)
chain: QVQLQESGGGSVQAGGSLRLSCTASGFTFDDSDMGWYRQAPGNECELVSTISSDGSTYYADSVKGRFTISQDNAKNTVYLQMNSLKPEDTAVYYCAAEPRGYYSNYGGRRECNYWGQGTQVTVSS
With B12 as the binder, how does the “Surface Activity” value [3] read?
The value was 48%.

What about the Kd [4] of the same binder?
Its Kd is 14.1 nM.

And the koff [4]?
The koff was 0.0027 s⁻¹.

What about the kon [4] of the same binder?
Its kon is 192000 M⁻¹ s⁻¹.

B13: hIL2Rb_VHH8 Mono-Fc VHH (Fc fusion, not shown: a dimerising Fc or GST)
chain: QVQLQESGGGSVQVGGSLKLSCAASGYTYSSYYCMGWFRQAPGKEREGVAAIDSDGSTSYADSVKGRFTISQDDAKNTLYLQMNSLKPEDTAMYYCAASYEVVDCYPSGYGQDYWGKGTQVTVSS
How did the Surface Activity [1] turn out when B13 was run?
The Surface Activity was under 5%.

B14: hIL2Rb_VHH-8 (VHH)
VHH: QVQLQESGGGSVQVGGSLKLSCAASGYTYSSYYCMGWFRQAPGKEREGVAAIDSDGSTSYADSVKGRFTISQDDAKNTLYLQMNSLKPEDTAMYYCAASYEVVDCYPSGYGQDYWGKGTQVTVSS
notes: As a his-tagged phage clone periplasmic extract
Does B14 bind [5]?
Result: binds

B15: hIL-2Rg_VHH8 Mono-Fc VHH (Fc fusion, not shown: a dimerising Fc or GST)
chain: QVQLQESGGGSVQAGGSLRLSCVASGYTFSSYCMGWFRQAPGKEREGVAALGGGSTYYADSVKGRFTISQDNAKNTLYLQMNSLKPEDTAMYYCAAAWVACLEFGGSWYDLARYKHWGQGTQVTVSS
For B15, which “Surface Activity” value [3] is on record?
Its value is 110%.

And the Kd [4]?
The Kd was 2.2 nM.

And the koff [4]?
Its koff is 0.000812 s⁻¹.

What about the kon [4] of the same binder?
The kon was 366000 M⁻¹ s⁻¹.
